Data reported in patent US20150118238A1.

Target: RON on RON-transfected NIH 3T3 cells (UniProt Q04912)
Assay: IHC on FFPE RON-transfected NIH3T3 cells, Aperio Positive Pixel Count

EP1132Y antibody (Anti-RON)
Relative Positive Pixel Intensity Score: 221
